# Assays:
# MBP-His6-GCN4-Dimer = experiment: SEC-MALS; FPLC coupled with static light scattering; Superose 12 10/300 GL; 50 mM Tris pH 8.2, 100 mM NaCl, 1 mM EDTA, 2 mM DTT; loading concentration not shown
# [1] = biological target: the molecule itself; experiment: SEC-MALS; FPLC coupled with static light scattering; Superose 12 10/300 GL; 50 mM Tris pH 8.2, 100 mM NaCl, 1 mM EDTA, 2 mM DTT; loading concentrations 30 μM and 150 μM
molecule,measurement,setting,value
MBP-His6-GCN4-Dimer,stoichiometry N,MBP-His6-GCN4-Dimer,2
"PrLD-SAMWT fusion protein (FUS PrLD fused to the Shank3 SAM domain; MBP-PrLD-SAMWT-GB1) (other, UniProt P56959 1-212, looked up, FUS prion-like domain (PrLD), UniProt P56959, segment 1-212; SAM domain of Shank3 (aa 1654-1730), UniProt Q4ACU6, fused to the C-terminal end of PrLD; The light-scattering legend calls it only 'PrLD-SAMWT fusion protein (theoretical MW 80.7 kDa)'; also called PrLD-SAM chimera; source: E. coli BL21 (DE3), purified (Ni2+-NTA, size-exclusion chromatography); not shown: MBP, N-terminal, kept; GB1, …) CMASNDYTQQATQSYGAYPTQPGQGYSQQSSQPYGQQSYSGYGQSADTSGYGQSSYGSSYGQTQNTGYGTQSAPQGYGSTGGYGSSQSSQSSYGQQSSYPGYGQQPAPSSTSGSYGGSSQSSSYGQPQSGGYGQQSGYGGQQQSYGQQQSSYNPPQGYGQQNQYNSSSGGGGGGGGGNYGQDQSSMSGGGGGGGYGNQDQSGGGGGGYGGGQQGPRRPFQQKPLQLWSKFDVGDWLESIHLGEHRDRFEDHEIEGAHLPALTKEDFVELGVTRVGHRMNIERALRQLDGS",binding result,[1],binds

# Reference: paper PMC10264073, “Biological condensates form percolated networks with molecular motion properties distinctly different from dilute solutions” (eLife, 2023)
